Measured values reported in article PMC7515702.
pKd: −log10 of the molar value.

What was measured:
Assay in all cases: fluorescence polarization
Conditions in all cases: no NAD+, 250 mM NaCl; Kd: 5 nM probe, 12 mM HEPES pH 8.0, 250 mM NaCl, 4% glycerol, 5.7 mM beta-mercaptoethanol, 0.05 mg/ml BSA, 30 min RT. Competition: 40 nM PARP1, 20 nM probe …
PARP1 H862A H862A = PARP1 H862A H862A (UniProt P09874)
PARP1 H862D H862D = PARP1 H862D H862D (UniProt P09874)
PARP1 E988K E988K = PARP1 E988K E988K (UniProt P09874)
Sequence of PARP1 E988K E988K (P09874 whole entry E988K): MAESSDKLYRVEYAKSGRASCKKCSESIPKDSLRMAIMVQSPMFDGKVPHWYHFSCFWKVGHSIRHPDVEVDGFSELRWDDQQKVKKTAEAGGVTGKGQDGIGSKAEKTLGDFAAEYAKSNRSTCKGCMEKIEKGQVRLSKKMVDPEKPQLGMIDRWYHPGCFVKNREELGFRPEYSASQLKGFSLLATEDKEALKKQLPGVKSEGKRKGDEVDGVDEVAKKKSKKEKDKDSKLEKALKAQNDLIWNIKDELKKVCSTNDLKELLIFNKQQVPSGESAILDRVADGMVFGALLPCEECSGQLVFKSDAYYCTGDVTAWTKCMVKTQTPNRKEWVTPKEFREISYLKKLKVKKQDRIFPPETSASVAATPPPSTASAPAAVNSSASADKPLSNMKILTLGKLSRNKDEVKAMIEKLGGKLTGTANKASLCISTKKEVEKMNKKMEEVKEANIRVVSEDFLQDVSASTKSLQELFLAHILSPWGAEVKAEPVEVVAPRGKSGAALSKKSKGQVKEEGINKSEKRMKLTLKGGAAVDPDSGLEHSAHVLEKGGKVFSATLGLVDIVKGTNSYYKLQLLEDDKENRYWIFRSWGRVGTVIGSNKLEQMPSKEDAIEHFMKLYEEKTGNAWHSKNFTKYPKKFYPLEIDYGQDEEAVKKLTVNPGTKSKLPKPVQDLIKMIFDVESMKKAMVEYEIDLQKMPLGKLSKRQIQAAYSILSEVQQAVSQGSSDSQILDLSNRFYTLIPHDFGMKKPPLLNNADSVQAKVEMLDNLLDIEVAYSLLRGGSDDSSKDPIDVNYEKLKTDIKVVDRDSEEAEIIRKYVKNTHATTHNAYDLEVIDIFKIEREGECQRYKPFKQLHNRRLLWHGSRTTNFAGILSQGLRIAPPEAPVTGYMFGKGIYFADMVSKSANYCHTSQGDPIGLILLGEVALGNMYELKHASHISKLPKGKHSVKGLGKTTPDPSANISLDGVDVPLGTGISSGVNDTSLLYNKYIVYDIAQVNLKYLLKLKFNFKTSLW

PARP1 WT = PARP1 WT (UniProt P09874)
Sequence of PARP1 WT (P09874 whole entry): as the sequence (P09874 whole entry E988K) above, with K988E counted along it

Sequence of PARP1 H862A H862A (P09874 whole entry H862A): as the sequence (P09874 whole entry E988K) above, with H862A, K988E counted along it
Sequence of PARP1 H862D H862D (P09874 whole entry H862D): as the sequence (P09874 whole entry E988K) above, with H862D, K988E counted along it

## GCTGAGCTTCTGGTGAAGCTCAGCTCGCGGCAGCTGGTGCTGCCGCGA [nicked dumbbell DNA (SSB probe)]
PARP1 H862A H862A
  pKd: 6.75
PARP1 H862D H862D
  pKd: 7.95
PARP1 E988K E988K
  pKd: 8.13
PARP1 WT
  pKd: 6.91
